Results from PMC12412624, “Engineered Cas12j‐8 is a Versatile Platform for Multiplexed Genome Modulation in Mammalian Cells”.
Changes are numbered by the printed parent chain.

Experiments:
[1] = test system: T1, dCas12j-8 D495R D495R;D369A;E567A;D658A (bacteriophage (metagenome)); conditions: HEK293T cells; panel 1c (compare within a panel only); scale: mean GFP / mean GFP of wild type, printed, no background subtraction
T1 sequence: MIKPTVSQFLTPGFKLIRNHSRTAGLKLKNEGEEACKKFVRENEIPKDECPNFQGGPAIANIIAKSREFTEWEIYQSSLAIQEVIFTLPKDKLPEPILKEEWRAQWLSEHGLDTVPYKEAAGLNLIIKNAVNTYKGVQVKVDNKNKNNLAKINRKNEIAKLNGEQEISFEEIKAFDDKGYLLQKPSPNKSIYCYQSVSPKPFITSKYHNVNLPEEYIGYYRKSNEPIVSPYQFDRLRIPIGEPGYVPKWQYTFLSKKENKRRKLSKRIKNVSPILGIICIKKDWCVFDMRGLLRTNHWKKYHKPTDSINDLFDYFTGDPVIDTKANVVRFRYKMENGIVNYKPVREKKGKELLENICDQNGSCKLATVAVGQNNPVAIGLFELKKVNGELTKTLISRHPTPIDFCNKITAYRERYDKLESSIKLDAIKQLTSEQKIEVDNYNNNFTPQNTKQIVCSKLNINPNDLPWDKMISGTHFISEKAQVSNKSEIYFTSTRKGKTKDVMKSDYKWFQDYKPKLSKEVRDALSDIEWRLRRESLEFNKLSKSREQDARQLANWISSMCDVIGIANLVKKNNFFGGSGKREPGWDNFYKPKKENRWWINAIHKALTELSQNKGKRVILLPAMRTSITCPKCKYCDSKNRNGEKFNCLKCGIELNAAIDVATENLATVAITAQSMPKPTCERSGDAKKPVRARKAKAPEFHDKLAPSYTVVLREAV

[2] = test system: T2, dCas12j-8 E242R E242R;D369A;E567A;D658A (bacteriophage (metagenome)); conditions: HEK293T cells; panel 1c (compare within a panel only); scale: mean GFP / mean GFP of wild type, printed, no background subtraction
T2 sequence: T1 sequence with E242R, R495D

[3] = test system: T3, dCas12j-8 E258R+D523R E258R;D523R;D369A;E567A;D658A (bacteriophage (metagenome)); conditions: HEK293T cells; panel 1d (compare within a panel only); scale: mean GFP / mean GFP of wild type, printed, no background subtraction
T3 sequence: T1 sequence with E258R, R495D, D523R

[4] = test system: T4, dCas12j-8 E535R E535R;D369A;E567A;D658A (bacteriophage (metagenome)); conditions: HEK293T cells; panel 1c (compare within a panel only); scale: mean GFP / mean GFP of wild type, printed, no background subtraction
T4 sequence: T1 sequence with R495D, E535R

CUUUCAAGACUAAUAGAUUGCUCCUUACGAGGAGACACUCCCUAUCAGUGAUAGAG / TTNACTCCCTATCAGTGATAGAG / CTCTATCACTGATAGGGAGTNAA [TetO]
binding signal [1]: 1.18
binding signal [2]: 0.683
binding signal [3]: 2.67
binding signal [4]: 0.495
